B1: Hairpin Ribozyme (parent)
chain: GUCCUCUUUCACGUGCGCGUGAAAGAGAGAAGUGAACCAGAGAAACACACGUUGUGGUAUAUUACCUGGUA

Variants of: B1
Test: self-cleavage, relative activity (ratio to wild type); higher = more cleavage; co-transcriptional

Compared with C37G A41C, C37G A41G is higher in self-cleavage: 0.282 for the first, 0.369 for the second.

Compared with A39G G42U, A39G G42C is higher in self-cleavage: 0.107 for the first, 0.129 for the second.

Going from G40C U63A to G40C U63G, the self-cleavage falls from 0.183 to 0.135.

Going from G40C G57C to G40C G57U, the self-cleavage falls from 0.134 to 0.106.

Going from C37U A44G to A39C C48G, the self-cleavage rises from 0.112 to 0.256.

Compared with G40C C50G, G40A U70C is higher in self-cleavage: 0.12 for the first, 0.136 for the second.

First: C38U C48A
Second: C38U A39C
The self-cleavage of the first is lower: 0.142 for the first, 0.152 for the second.

First: C38A U58G
Second: A39C U70A
The self-cleavage of the first is higher: 0.204 for the first, 0.188 for the second.

Going from A39C U70G to G40C A47C, the self-cleavage falls from 0.232 to 0.142.

Compared with G40C U60A, G40C U60G is higher in self-cleavage: 0.0252 for the first, 0.102 for the second.

First: C37U C48U
Second: C38G A39U
The self-cleavage of the first is lower: 0.144 for the first, 0.209 for the second.

First: C37G A45U
Second: C37G A45G
The self-cleavage of the first is higher: 0.188 for the first, 0.103 for the second.

Compared with A39U U52A, A39U U52G is lower in self-cleavage: 0.406 for the first, 0.252 for the second.

Going from C38A G56A to C38A G56C, the self-cleavage falls from 0.178 to 0.136.

Going from A39C U52A to A39C U55C, the self-cleavage falls from 0.543 to 0.188.

Going from C37U U52C to C37U U52G, the self-cleavage falls from 0.651 to 0.527.

First: A39C U67G
Second: C37A U53C
The self-cleavage of the first is higher: 0.548 for the first, 0.515 for the second.

Going from C37A U53A to C37U G68A, the self-cleavage falls from 0.356 to 0.257.

First: G40A U63G
Second: C37U A64U
The self-cleavage of the first is lower: 0.126 for the first, 0.242 for the second.

Going from C37U A64G to C37U U62C, the self-cleavage falls from 0.456 to 0.0928.

First: A39C G69A
Second: C38A A39U
The self-cleavage of the first is lower: 0.168 for the first, 0.206 for the second.

Compared with C37G G54A, G40C A45C is lower in self-cleavage: 0.173 for the first, 0.0755 for the second.

Compared with A39U G68U, A39G A59G is lower in self-cleavage: 0.225 for the first, 0.116 for the second.

Going from A39G A59C to G40A A45C, the self-cleavage falls from 0.122 to 0.0818.

First: C38U G42C
Second: C38U G42U
The self-cleavage of the first is lower: 0.177 for the first, 0.2 for the second.

Compared with C37G U70C, C38G A71C is lower in self-cleavage: 0.531 for the first, 0.272 for the second.

First: C37G A64G
Second: C37A G69C
The self-cleavage of the first is lower: 0.15 for the first, 0.467 for the second.

Compared with C38G G57A, C37U U58G is higher in self-cleavage: 0.0627 for the first, 0.553 for the second.

Compared with C37U U58A, C37G U67A is lower in self-cleavage: 0.48 for the first, 0.263 for the second.

First: C37G A59C
Second: C37G A59G
The self-cleavage of the first is lower: 0.0453 for the first, 0.0514 for the second.

First: C37G G40C
Second: C37G C65U
The self-cleavage of the first is lower: 0.13 for the first, 0.334 for the second.

Compared with C37G C65A, C38G U62G is lower in self-cleavage: 0.179 for the first, 0.0875 for the second.

Going from G40C A44C to C38G C66U, the self-cleavage rises from 0.0317 to 0.21.

Going from C38G C66G to C38G C66A, the self-cleavage rises from 0.0755 to 0.151.

Compared with G40C G56C, C37G U62C is higher in self-cleavage: 0.122 for the first, 0.152 for the second.

Compared with G40A C66A, C38U is higher in self-cleavage: 0.322 for the first, 0.497 for the second.

First: C38A
Second: C38G
The self-cleavage of the first is lower: 0.171 for the first, 0.181 for the second.

Compared with G40A G68C, G40A G68A is lower in self-cleavage: 0.223 for the first, 0.211 for the second.

First: G40A G68U
Second: A39G A49U
The self-cleavage of the first is higher: 0.156 for the first, 0.0948 for the second.

First: C38A U67C
Second: C37G U58C
The self-cleavage of the first is lower: 0.0697 for the first, 0.335 for the second.

Compared with C37G U58A, C38A U70A is lower in self-cleavage: 0.202 for the first, 0.165 for the second.

Compared with C38A G42A, A39C A64C is higher in self-cleavage: 0.111 for the first, 0.193 for the second.

Going from C38U C65G to A39C A43C, the self-cleavage falls from 0.164 to 0.14.

Compared with A39C A43U, G40C A43U is higher in self-cleavage: 0.123 for the first, 0.128 for the second.

First: G40C A43C
Second: C38A U62G
The self-cleavage of the first is higher: 0.168 for the first, 0.139 for the second.

First: C37A G68U
Second: C38G G51U
The self-cleavage of the first is higher: 0.332 for the first, 0.312 for the second.

Going from C38G G51A to A39U U53C, the self-cleavage rises from 0.271 to 0.508.

First: C37U A39C
Second: A39C G56A
The self-cleavage of the first is lower: 0.0611 for the first, 0.193 for the second.

First: C37G U60A
Second: C37G U60G
The self-cleavage of the first is lower: 0.197 for the first, 0.245 for the second.

Going from A39C G42A to A39C G42C, the self-cleavage falls from 0.191 to 0.169.

Compared with A39C A47U, G40A A43C is lower in self-cleavage: 0.151 for the first, 0.147 for the second.

Compared with C37G C66U, A39G G54A is lower in self-cleavage: 0.286 for the first, 0.143 for the second.

First: A39G G54C
Second: C38U U52C
The self-cleavage of the first is lower: 0.131 for the first, 0.598 for the second.

Compared with A39C A41C, C38G C48U is lower in self-cleavage: 0.349 for the first, 0.108 for the second.

First: C38G C48G
Second: C38G A45U
The self-cleavage of the first is lower: 0.071 for the first, 0.156 for the second.

First: G40A G69C
Second: A39G G68U
The self-cleavage of the first is higher: 0.11 for the first, 0.107 for the second.

First: A39C G40C
Second: G40C C48U
The self-cleavage of the first is lower: 0.0323 for the first, 0.135 for the second.

Going from G40C C48A to C38A G51A, the self-cleavage rises from 0.128 to 0.349.

Going from C38A U63C to G40C U53C, the self-cleavage rises from 0.0636 to 0.168.

Going from G40C U53G to C38G U67G, the self-cleavage rises from 0.103 to 0.124.

Going from C37U C65U to C37U C65G, the self-cleavage falls from 0.316 to 0.163.

Compared with A39G G51C, A39G G51U is higher in self-cleavage: 0.232 for the first, 0.36 for the second.

Compared with A39G U58G, A39G U58A is higher in self-cleavage: 0.114 for the first, 0.217 for the second.

Compared with C37G C50U, C37G C50A is lower in self-cleavage: 0.214 for the first, 0.14 for the second.

Going from A39G A45C to A39U G56C, the self-cleavage rises from 0.122 to 0.169.

Compared with A39U G56U, C38A A43G is lower in self-cleavage: 0.189 for the first, 0.0867 for the second.

Compared with C38A A43C, A39C U62G is higher in self-cleavage: 0.0755 for the first, 0.108 for the second.

Going from A39C U62A to A39U C65G, the self-cleavage rises from 0.159 to 0.232.

First: A39C G57C
Second: A39C G57U
The self-cleavage of the first is lower: 0.127 for the first, 0.16 for the second.

Compared with C37G A49U, C38A C46A is lower in self-cleavage: 0.153 for the first, 0.0508 for the second.

First: C38U G69C
Second: C37U G69C
The self-cleavage of the first is lower: 0.158 for the first, 0.364 for the second.

Compared with C38A U60C, A39G A64G is higher in self-cleavage: 0.251 for the first, 0.275 for the second.

Going from A39C G51U to C38U A61U, the self-cleavage falls from 0.64 to 0.164.

Compared with C38A A47G, C38G U60A is higher in self-cleavage: 0.106 for the first, 0.116 for the second.

Going from C37G U55G to C37U C66G, the self-cleavage rises from 0.119 to 0.195.

Compared with C37U C66A, G40A A59C is higher in self-cleavage: 0.0721 for the first, 0.121 for the second.

First: G40A A59U
Second: A39C G54C
The self-cleavage of the first is lower: 0.136 for the first, 0.213 for the second.

Compared with C38G A64G, C38G A64C is lower in self-cleavage: 0.118 for the first, 0.0814 for the second.

Compared with G40A A41G, G40A A41U is higher in self-cleavage: 0.263 for the first, 0.608 for the second.

First: C38A A49U
Second: A39G G40U
The self-cleavage of the first is lower: 0.0928 for the first, 0.116 for the second.

First: A39G G40C
Second: G40A A44C
The self-cleavage of the first is lower: 0.0572 for the first, 0.161 for the second.

First: G40A A44G
Second: G40A C48U
The self-cleavage of the first is higher: 0.144 for the first, 0.136 for the second.

First: G40A C48G
Second: G40A C48A
The self-cleavage of the first is lower: 0.135 for the first, 0.246 for the second.

In the case of A39G A44U, the self-cleavage is reported as 0.103.

From the RNAGym collection of RNA variant scans (doi:10.7554/elife.80360)
